Assay results as given in patent publication US20170052184A1.

Key:
[1] = target: 92-133 biotin labeled HCV core peptide (hepatitis C virus) (UniProt P26664); assay: EIA; Ab 7.813 ng/mL captured on anti-mouse Fc; bt-peptide 500 ng/mL
[2] = target: Mut6T110S biotin labeled HCV core peptide (hepatitis C virus); assay: as above
[3] = target: Mut1T110N biotin labeled HCV core peptide (hepatitis C virus); assay: as above
[4] = target: C113T109N biotin labeled HCV core peptide (hepatitis C virus); assay: as above
[5] = target: 92-133 biotin labeled HCV core peptide (hepatitis C virus) (UniProt P26664); assay: EIA; Ab 15.625 ng/mL captured on anti-mouse Fc; bt-peptide 500 ng/mL
[6] = target: Mut6T110S biotin labeled HCV core peptide (hepatitis C virus); assay: as above
[7] = target: Mut1T110N biotin labeled HCV core peptide (hepatitis C virus); assay: as above
[8] = target: C113T109N biotin labeled HCV core peptide (hepatitis C virus); assay: as above
[9] = target: 92-133 biotin labeled HCV core peptide (hepatitis C virus) (UniProt P26664); assay: EIA; Ab 250 ng/mL captured on anti-mouse Fc; bt-peptide 500 ng/mL
[10] = target: Mut6T110S biotin labeled HCV core peptide (hepatitis C virus); assay: as above
[11] = target: Mut1T110N biotin labeled HCV core peptide (hepatitis C virus); assay: as above
[12] = target: C113T109N biotin labeled HCV core peptide (hepatitis C virus); assay: as above
[13] = target: 92-133 biotin labeled HCV core peptide (hepatitis C virus) (UniProt P26664); assay: EIA; Ab 500 ng/mL captured on anti-mouse Fc; bt-peptide 500 ng/mL
[14] = target: Mut6T110S biotin labeled HCV core peptide (hepatitis C virus); assay: as above
[15] = target: Mut1T110N biotin labeled HCV core peptide (hepatitis C virus); assay: as above
[16] = target: C113T109N biotin labeled HCV core peptide (hepatitis C virus); assay: as above
[17] = target: 92-133 biotin labeled HCV core peptide (hepatitis C virus) (UniProt P26664); assay: EIA; Ab 3.906 ng/mL captured on anti-mouse Fc; bt-peptide 500 ng/mL
[18] = target: Mut6T110S biotin labeled HCV core peptide (hepatitis C virus); assay: as above
[19] = target: Mut1T110N biotin labeled HCV core peptide (hepatitis C virus); assay: as above
[20] = target: C113T109N biotin labeled HCV core peptide (hepatitis C virus); assay: as above
[21] = target: 92-133 biotin labeled HCV core peptide (hepatitis C virus) (UniProt P26664); assay: EIA; Ab 1.953 ng/mL captured on anti-mouse Fc; bt-peptide 500 ng/mL
[22] = target: Mut6T110S biotin labeled HCV core peptide (hepatitis C virus); assay: as above
[23] = target: Mut1T110N biotin labeled HCV core peptide (hepatitis C virus); assay: as above
[24] = target: C113T109N biotin labeled HCV core peptide (hepatitis C virus); assay: as above
[25] = target: 92-133 biotin labeled HCV core peptide (hepatitis C virus) (UniProt P26664); assay: EIA; Ab 125 ng/mL captured on anti-mouse Fc; bt-peptide 500 ng/mL
[26] = target: Mut6T110S biotin labeled HCV core peptide (hepatitis C virus); assay: as above
[27] = target: Mut1T110N biotin labeled HCV core peptide (hepatitis C virus); assay: as above
[28] = target: C113T109N biotin labeled HCV core peptide (hepatitis C virus); assay: as above
[29] = target: 92-133 biotin labeled HCV core peptide (hepatitis C virus) (UniProt P26664); assay: EIA; Ab 1000 ng/mL captured on anti-mouse Fc; bt-peptide 500 ng/mL
[30] = target: Mut6T110S biotin labeled HCV core peptide (hepatitis C virus); assay: as above
[31] = target: Mut1T110N biotin labeled HCV core peptide (hepatitis C virus); assay: as above
[32] = target: C113T109N biotin labeled HCV core peptide (hepatitis C virus); assay: as above

**Q.** Which results are given for HCV C11-3 monoclonal antibody?
**A.** signal at 492 nm [1]: 0.562 OD 492 nm; signal at 492 nm [2]: 0.344 OD 492 nm; signal at 492 nm [3]: 0.0966 OD 492 nm; signal at 492 nm [4]: 0.119 OD 492 nm; signal at 492 nm [5]: 1.01 OD 492 nm; signal at 492 nm [6]: 0.807 OD 492 nm; signal at 492 nm [7]: 0.11 OD 492 nm; signal at 492 nm [8]: 0.116 OD 492 nm; signal at 492 nm [9]: 1.68 OD 492 nm; signal at 492 nm [10]: 1.83 OD 492 nm; signal at 492 nm [11]: 0.0857 OD 492 nm; signal at 492 nm [12]: 0.0963 OD 492 nm; signal at 492 nm [13]: 1.95 OD 492 nm; signal at 492 nm [14]: 2.24 OD 492 nm; signal at 492 nm [15]: 0.0765 OD 492 nm; signal at 492 nm [16]: 0.0882 OD 492 nm; signal at 492 nm [17]: 0.183 OD 492 nm; signal at 492 nm [18]: 0.227 OD 492 nm; signal at 492 nm [19]: 0.079 OD 492 nm; signal at 492 nm [20]: 0.0833 OD 492 nm; signal at 492 nm [21]: 0.134 OD 492 nm; signal at 492 nm [22]: 0.0964 OD 492 nm; signal at 492 nm [23]: 0.0854 OD 492 nm; signal at 492 nm [24]: 0.114 OD 492 nm; signal at 492 nm [25]: 1.83 OD 492 nm; signal at 492 nm [26]: 2.02 OD 492 nm; signal at 492 nm [27]: 0.127 OD 492 nm; signal at 492 nm [28]: 0.147 OD 492 nm; signal at 492 nm [29]: 1.87 OD 492 nm; signal at 492 nm [30]: 2.15 OD 492 nm; signal at 492 nm [31]: 0.0721 OD 492 nm; signal at 492 nm [32]: 0.0806 OD 492 nm
